Assay results reported in paper PMC5269746.

Experiments:
[1] = tested on: HNH nanocarrier (H5WYG endosome release motif, DNA condensing motif, NLS) (synthetic construct); assay: EMSA (agarose gel retardation); details: not given in the material (gel retardation methods text absent); ethidium bromide staining
[2] = tested on: GNH nanocarrier (GP41 endosome release motif, DNA condensing motif, NLS) (synthetic construct); assay: EMSA (agarose gel retardation); details: not given in the material (gel retardation methods text absent); ethidium bromide staining

Substance: pGL3 plasmid
- binding (N/P ratio for complete retardation) [1]: 1
- binding (N/P ratio for complete retardation) [2]: 1
